Measurements from patent US6312941.

Legend:
[1] = molecular target: wild-type murine JAK2 (expressed in COS cells from pRK5) (murine)
[2] = molecular target: wild-type murine JAK2 (expressed in COS cells from pRK5) (murine); remark: listed apart in the source

tyrosyl phosphorylation of JAK2 (αMyc immunoprecipitate, anti-phosphotyrosine blot) [1] [fold] | tyrosine phosphorylation of JAK2 (αJAK2 immunoprecipitate, anti-PY blot, densitometry normalised to JAK2) [2] [%] | Substance
3 | – | HA-tagged SH2-Bβc (expressed in COS cells)
– | 90 | Myc-tagged SH2-Bβn (truncated at amino acid 555, lacks the SH2 domain)
